Test results as given in the supplement of paper PMC10567573.
± gives the standard deviation.

Experiment: protein stability index of a GFP-peptide fusion (GPS, HEK-293T) (PSI 1-6); higher = more stable
[1] = treatment: DMSO, c terminus: a fixed tail appended
[2] = treatment: MLN4924 1 uM, 8 h, c terminus: a fixed tail appended
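Further: 24-mer peptide tiles fused after GFP, lentivirally expressed, FACS-sorted into six equal bins by GFP/DsRed ratio, decoded by Illumina sequencing, PSI is the read-weighted mean bin number.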

Sequence | protein stability index [1] | protein stability index [2] | protein stability index (treatment: DMSO, c terminus: native) | protein stability index (treatment: MLN4924 1 uM, 8 h, c terminus: native)
LSRTNEELLWKLQTGDPTSPIKLS [MTUS2] | 3.49 ± 0.12 | 3.35 ± 0.25 | – | –
HSFNFVLSANLHGGAVVANYPYDK [CPN1] | 2.19 ± 0.44 | 2.4 ± 0.2 | – | –
CFIQSSHLIRHQITHTREEQPHGR [ZNF8] | 3.4 ± 0.12 | 3.37 ± 0.23 | – | –
REERLRRENEELSARYLSQCQEAE [FBF1] | 5.26 ± 0.29 | 4.97 ± 0.54 | – | –
LKLLNHPNVIEYYENFLEDKALMI [NEK8] | 2.39 ± 0.4 | 2.34 ± 0.23 | – | –
MRKGNTMQQFLQKALEILRKDFSE [FAM50A] | 3.09 ± 0.59 | 2.89 ± 0.46 | – | –
LCEYFSQHLGEYENVLAALEGLNL [NECAB1] | 2.61 ± 0.35 | 2.63 ± 0.22 | – | –
VRLQSQRPSMASELMPSSRLWSLS [SLC25A39] | 2.64 ± 0.32 | 2.58 ± 0.17 | – | –
ALSQLICFCRESRYMDQWVPVINL [GADD45A] | 2.95 ± 0.45 | 3.06 ± 0.76 | – | –
GVLRPTVRPGTPPDFILKVVIDKH [CTDNEP1] | 2.73 ± 0.35 | 2.67 ± 0.2 | – | –
SAGKRGPDRGSPEYRQRRERNNIA [CEBPD] | 4.61 ± 0.2 | 4.41 ± 0.039 | – | –
PINYQGLRFSGVNDTDFRVYLLGN [POMT2] | 2.27 ± 0.23 | 2.46 ± 0.14 | – | –
QDLKLFLQEPGVFSPTPPQQFQPA [FCHSD1] | 3.26 ± 0.34 | 3.55 ± 0.55 | – | –
LHQTIYNQACKLLSDDYEQVRSAA [INTS4] | 2.96 ± 0.48 | 3.09 ± 0.19 | – | –
SSFSDPFFVVETLCIIWFSFELLV [KCNA3] | 3.06 ± 0.48 | 3.2 ± 0.32 | – | –
ANPQYTVYSQASTMSIPVAMETDG [PPP2R5C] | 4.26 ± 0.33 | 4.41 ± 0.21 | – | –
LHHKRLAKECMLQEENKSLREENK [CBY2] | 4.87 ± 0.39 | 4.89 ± 0.21 | – | –
RQPRDELERVRVSCTIIFLASIFQ [TMEM175] | 2.11 ± 0.15 | 2.17 ± 0.28 | – | –
RSEAVAQLWGQKKKNSNMTYEKLS [ELF3] | 3.52 ± 0.21 | 3.8 ± 0.18 | – | –
QGTGYIPTEQVNELVALIPHSDQR [TMEM106C] | 4.73 ± 0.18 | 4.67 ± 0.18 | – | –
SSETPPPPPPPNEINPPPHTMEEE [EIF5] | 5.52 ± 0.31 | 5.46 ± 0.3 | – | –
TDGGGWLVFQRRMDGQTDFWRDWE [TNXB] | 2.33 ± 0.53 | 2.25 ± 0.65 | – | –

Sequence | protein stability index [1] | protein stability index [2] | protein stability index (treatment: DMSO, c terminus: native) | protein stability index (treatment: MLN4924 1 uM, 8 h, c terminus: native)
TSYCELLQNKVPLLGSSTACIVVL [PPTC7] | 2.8 ± 0.1 | 2.55 ± 0.09 | – | –
MSGKSPVESSLNVKTKKNAPSATI [FBXO34] | 4.5 ± 0.22 | 4.6 ± 0.12 | – | –
ISPETMVALLTGKFSNIVDKFVIV [CDC25B] | 2.29 ± 0.51 | 2.38 ± 0.73 | – | –
GSELRDFPGRPMGHLSKDVDENDS [DLC1] | 5.63 ± 0.24 | 5.51 ± 0.17 | – | –
VSFVERILKSQKERQCALRVFKAR [FBXO39] | 2.35 ± 0.41 | 2.55 ± 0.21 | – | –
VIFLLLFAPFIVYYFIMACDQYSC [DHCR7] | 2.41 ± 0.19 | 2.39 ± 0.33 | – | –
TTKCVRQYEGHVNEYAYLPLHVHE [DCAF4] | 2.92 ± 0.39 | 3.17 ± 0.2 | – | –
SRREIRKIMGVEEEDDDDDDDDNL [ANKRD40] | 5.44 ± 0.12 | 5.53 ± 0.16 | – | –
EYQPLQIETYGPHVPELEMLGRLG [MNAT1] | 3.18 ± 0.28 | 3.76 ± 0.31 | – | –
DLQITDQVALLRLTWSELFVLNAA [NR2F2] | 2.92 ± 0.58 | 2.88 ± 0.65 | – | –
ADFESEDEGEEFDDWEDDYDYPEE [EID1] | 4.62 ± 0.29 | 4.87 ± 0.35 | – | –
CGHTFCRLCLPALSQMGAQSSGKI [TRIM15] | 2.12 ± 0.42 | 2.36 ± 0.46 | – | –
LQYILAQIGFSVGLGNIWRFPYLC [SLC6A17] | 2.27 ± 0.16 | 2.88 ± 0.31 | – | –
SAGNRTHKARTRPKARKQGVSPAD [ADAMTSL2] | 4.75 ± 0.94 | 5.07 ± 0.8 | – | –
EEGTSDSNTGSESNSATVEEPPTD [SMARCE1] | 5.36 ± 0.44 | 5.67 ± 0.2 | – | –
FTTFFIDCMAALGLAYDRKKVSKA [SCD] | 2.07 ± 0.32 | 2.26 ± 0.53 | – | –
FDKKDRRALHWAAYMGHLDVVALL [ANKRD44] | 2.61 ± 0.82 | 2.24 ± 0.22 | – | –
QGAPASSFVYVNPEDGRIFAQRTF [PCDHGC5] | 2.57 ± 0.27 | 2.78 ± 0.35 | – | –
PAYGMSPSLSTITSTSSSITSSIP [DVL3] | 3.82 ± 0.26 | 3.65 ± 0.27 | – | –
PGRSRMISQEEFARQLQLSDPQTV [LPCAT4] | 4.44 ± 0.22 | 4.38 ± 0.12 | – | –
TGTVHRIDNTTVIYNSNIFTDPFF [KCNA1] | 2.89 ± 0.27 | 3.05 ± 0.2 | – | –
NCGLEEKIANLGSCNDSKLEFRSF [S100A14] | 2.25 ± 0.68 | 2.82 ± 1.2 | – | –

Sequence | protein stability index [1] | protein stability index [2] | protein stability index (treatment: DMSO, c terminus: native) | protein stability index (treatment: MLN4924 1 uM, 8 h, c terminus: native)
ENHPDVFSDSSMDHFQKFLPTVGG [MYOZ1] | 2.99 ± 0.5 | 3.34 ± 0.53 | – | –
EAEKLERQLALPATEQAATQESTF [NOP53] | 5.43 ± 0.32 | 5.53 ± 0.1 | – | –
GLDSISHDSANCELPLLTPCSKAV [ETS2] | 4.47 ± 0.076 | 4.55 ± 0.28 | – | –
FVCQCFEGYILREDGKTCRRKDVC [MATN2] | 1.99 ± 0.39 | 3.09 ± 0.092 | – | –
DIASRYPTLWTEQVKSRQNKTNKN [SMOC2] | 3.98 ± 0.18 | 4.36 ± 0.33 | – | –
ILNLTQALKDNKSPLHLVQMPPVI [PI4K2A] | 2.54 ± 0.27 | 2.35 ± 0.23 | – | –
AFRYLSWILFPLLGCYAVYSLLYL [CLPTM1] | 2.29 ± 0.44 | 3.03 ± 0.66 | – | –
ALLKFKPGAFIAGVPVQPVLIRYP [LPCAT4] | 2.54 ± 0.73 | 2.39 ± 0.7 | – | –
LLWRKQLFCDVTLTAQGQQFHCHK [KLHL14] | 2.23 ± 0.41 | 1.99 ± 0.23 | – | –
SIQSLTLEWNSLGTWDDAFATFCG [LRRC45] | 2.25 ± 0.25 | 2.08 ± 0.53 | – | –
AQTPLHVAAETGHTSTARLLLHRG [RIPK4] | 3.89 ± 0.12 | 3.91 ± 0.38 | – | –
MMHGLKPLSLVKRTDLKDLIIFDK [CEP70] | 2.37 ± 0.12 | 2.92 ± 0.47 | – | –
ILDLSCNKLTTLPSDFCGLTHLVK [LRRC59] | 2.02 ± 0.38 | 2.09 ± 0.022 | – | –
MLTLPFDESVVMPESQMCRKFSRE [NEUROD6] | 3.65 ± 0.15 | 3.77 ± 0.15 | – | –
PASSRNRSPSGSLRSARGSRGGTR [RBMY1A1] | 5.14 ± 0.37 | 5.25 ± 0.24 | – | –
LTRAGMSYYNSPGLHVQHMGTSHG [CCDC6] | 2.67 ± 0.2 | 2.81 ± 0.12 | – | –
TNSDTPTSFNHMDSDKLSGLWSRI [TOR1AIP2] | 3.21 ± 0.21 | 3.1 ± 0.39 | – | –
KWLPQQNAAHSLLSTNDKTIKLWK [PPP2R2C] | 2.88 ± 0.096 | 3.09 ± 0.32 | – | –
GLEALAGGDLMPAPADPTAREGLA [FCHO1] | 5.2 ± 0.15 | 5.23 ± 0.21 | – | –
MHLKPYWKLQKKEHPPEVSRETQR [FBXO34] | 3.58 ± 0.18 | 3.78 ± 0.33 | – | –
LKQRTVIEMFKSITHSTVGSKGEK [EHMT1] | 3.16 ± 0.18 | 3.17 ± 0.33 | – | –
SQSHCYRTCFSPASDGSDFTFLRP [PCDHGC5] | 2.15 ± 0.26 | 2.09 ± 0.16 | – | –

Sequence | protein stability index [1] | protein stability index [2] | protein stability index (treatment: DMSO, c terminus: native) | protein stability index (treatment: MLN4924 1 uM, 8 h, c terminus: native)
LQGVRLSENVVNRMKEPSSPPPAP [CHCHD6] | 4.62 ± 0.32 | 4.939 ± 0.047 | – | –
QSNYDTKGKTAVDTVFRFDPRYNK [KLHL13] | 3.49 ± 0.23 | 4.17 ± 0.22 | – | –
VHTEFTLRNFNSAKDMKKAVAHMK [MATN2] | 3.95 ± 0.17 | 4.03 ± 0.22 | – | –
QLKVVERTRTATMLCAASGNPDPE [PTPRD] | 5.16 ± 0.26 | 4.86 ± 0.38 | – | –
DRFAQDSEMKKCSDYESIEVPDSY [PPEF2] | 5.15 ± 0.23 | 5.15 ± 0.34 | – | –
DQLFMQEKARQLLGRLKPSHTSRT [MYBL2] | 3.29 ± 0.27 | 3.76 ± 0.43 | – | –
TIEELQQKILCAKAENARLVVNID [KRT34] | 3.37 ± 0.31 | 3.41 ± 0.48 | – | –
KDNEFTSKPWHWPINYQGLRFSGV [POMT2] | 2.23 ± 0.23 | 2.42 ± 0.22 | – | –
HYIAGAHGNEVLGRELLLLLVQFV [CPXM2] | 2 ± 0.075 | 2.22 ± 0.37 | – | –
LKYIGMAKREINKLLKQKEKKNE [ARL6IP1] | – | – | 3.7 ± 0.17 | 3.83 ± 0.31
IQFWNSRQSLEGLSVRSVFFGVFQ [CLPTM1] | 2.65 ± 0.46 | 2.79 ± 0.91 | – | –
EVLVGKTIEQSLLEVMEEEELANL [RSPH3] | 4.89 ± 0.3 | 4.91 ± 0.23 | – | –
PSSLNSPSSYNCSQSILPLEHGSI [ESR2] | 3.15 ± 0.31 | 3.13 ± 0.12 | – | –
EKRAKRLSSAPSSRAEPIRTTVFQ [ZMAT5] | 3.74 ± 0.54 | 3.86 ± 0.061 | – | –
KKEELLFDDGDDIMATLGFGDSPK [FBF1] | 4.54 ± 0.2 | 4.59 ± 0.27 | – | –
CQHLSSSAEELRKARSNSTLSKSE [KCNA3] | 5.01 ± 0.33 | 4.75 ± 0.26 | – | –
GKHITVFKTYISPWERAMGVDPQQ [MYOZ1] | 2.33 ± 0.27 | 2.18 ± 0.46 | – | –
PEGTENPLGVDESLFSYGLRESIA [SLA] | 4.04 ± 1.1 | 4.19 ± 0.1 | – | –
LALEEPVDYKQSVLNVAGEAGGKQ [SLC6A17] | 4.91 ± 0.45 | 5.32 ± 0.14 | – | –
NSNQATDIMETSGWKSMIQSHPHL [SPOPL] | 3.34 ± 0.22 | 3.48 ± 0.21 | – | –
VFLHLLLLFKLVAPVTFRHHRYDD [CPN1] | 3.12 ± 0.13 | 3.14 ± 0.23 | – | –
WAGFMVLLMIPWGSAAKLVCYFTN [CHIT1] | 2.69 ± 0.069 | 2.11 ± 0.13 | – | –
